First the molecules themselves.
T1: EcoCascade-crRNA(EMX1) (Escherichia coli, UniProt Q46901;P76632;Q46899;Q46898;Q46897 1-502;1-160;2-363;1-224;2-199)
T1 sequence 1: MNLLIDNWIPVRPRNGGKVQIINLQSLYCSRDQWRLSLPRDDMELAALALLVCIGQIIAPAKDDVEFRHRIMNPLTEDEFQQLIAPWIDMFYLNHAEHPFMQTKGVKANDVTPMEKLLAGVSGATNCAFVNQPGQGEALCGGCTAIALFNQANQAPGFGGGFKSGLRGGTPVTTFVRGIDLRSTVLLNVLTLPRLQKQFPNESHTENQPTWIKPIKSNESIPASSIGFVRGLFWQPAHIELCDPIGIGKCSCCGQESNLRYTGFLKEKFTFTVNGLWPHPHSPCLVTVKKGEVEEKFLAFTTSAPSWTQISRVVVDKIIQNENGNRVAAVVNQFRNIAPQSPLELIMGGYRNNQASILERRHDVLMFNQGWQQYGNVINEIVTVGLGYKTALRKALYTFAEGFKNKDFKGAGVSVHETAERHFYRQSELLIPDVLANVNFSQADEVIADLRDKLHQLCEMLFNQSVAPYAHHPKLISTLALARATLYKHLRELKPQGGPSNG
T1 sequence 2: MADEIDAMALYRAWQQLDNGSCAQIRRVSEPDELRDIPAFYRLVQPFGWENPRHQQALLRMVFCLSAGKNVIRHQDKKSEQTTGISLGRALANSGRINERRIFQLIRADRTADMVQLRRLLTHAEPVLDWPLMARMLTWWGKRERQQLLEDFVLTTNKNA
T1 sequence 3: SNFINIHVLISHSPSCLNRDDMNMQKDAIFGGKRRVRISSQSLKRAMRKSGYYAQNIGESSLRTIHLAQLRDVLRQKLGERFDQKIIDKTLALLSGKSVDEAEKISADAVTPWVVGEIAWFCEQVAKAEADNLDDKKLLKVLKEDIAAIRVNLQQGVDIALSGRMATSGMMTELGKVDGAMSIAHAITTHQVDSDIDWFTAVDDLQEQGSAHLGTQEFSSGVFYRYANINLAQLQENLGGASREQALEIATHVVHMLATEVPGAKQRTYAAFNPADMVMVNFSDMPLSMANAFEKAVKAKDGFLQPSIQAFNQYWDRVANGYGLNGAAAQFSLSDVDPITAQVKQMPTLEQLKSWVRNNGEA
T1 sequence 4: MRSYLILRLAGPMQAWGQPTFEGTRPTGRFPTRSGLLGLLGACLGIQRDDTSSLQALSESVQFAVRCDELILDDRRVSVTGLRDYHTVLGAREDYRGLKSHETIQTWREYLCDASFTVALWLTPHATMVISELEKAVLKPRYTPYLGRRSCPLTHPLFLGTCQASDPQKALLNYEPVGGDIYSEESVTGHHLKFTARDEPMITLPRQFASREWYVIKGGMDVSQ
T1 sequence 5: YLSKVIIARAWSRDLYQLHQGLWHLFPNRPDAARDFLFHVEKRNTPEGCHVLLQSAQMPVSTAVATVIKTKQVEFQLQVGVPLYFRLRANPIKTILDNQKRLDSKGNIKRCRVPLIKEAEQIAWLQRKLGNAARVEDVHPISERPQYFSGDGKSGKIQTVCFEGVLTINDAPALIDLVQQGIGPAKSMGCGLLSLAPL

B1: EMX1-AAG-12-bio (n12) (dsDNA)
DNA 1: TGGCGCATTGCCACGAAGCAGGCCAATGGGTCTTCACGATCGTGACAAGACAATGACTAG
DNA 2: CTAGTCATTGTCTTGTCACGATCGTGAAGACCCATTGGCCTGCTTCGTGGCAATGCGCCA
B2: EMX1-AAG-32-bio (n32, paired PAM) (dsDNA)
DNA 1: TGGCGCATTGCCACGAAGCAGGCCAATGGGGAGGACATCGATGTCACCTCCAATGACTAG
DNA 2: CTAGTCATTGGAGGTGACATCGATGTCCTCCCCATTGGCCTGCTTCGTGGCAATGCGCCA
B3: EMX1-AAG-0-bio (n0) (dsDNA)
DNA 1: TGGCGCATTGCCACGAAGACTTAACCGTTTTCTTCACGATCGTGACAAGACAATGACTAG
DNA 2: CTAGTCATTGTCTTGTCACGATCGTGAAGAAAACGGTTAAGTCTTCGTGGCAATGCGCCA
B4: EMX1-AAG-6-bio (n6) (dsDNA)
DNA 1: B3 DNA 1 with A19C, C20A, T21G, T22G, A23C, A24C
DNA 2: B3 DNA 2 with T37G, T38G, A39C, A40C, G41T, T42G

Numbering of substitutions follows the chain as printed.

The target of this data set is T1, EcoCascade-crRNA(EMX1). The data set can be described thus: BLI; BLI: PBS, 0.01% Tween 20, 0.02% BSA, 20 uM EcoCascade analyte, biotinylated DNA on streptavidin; temperature not stated; EMSA conditions not in material. Conditions: protein: recombinant; tags: hexahistidine tag on Cas11, removed with HRV3C; copies: 1;2;6;1;1; label: Biotin-TEG; blunt.
With B1, the binding result is “no binding”.

For the molecule B2, the binding result is on record as “binds”.

In the case of B3, the binding result is given as “no binding”. As to B4, the binding result was “no binding”.

Values taken from article PMC9427990, “Dynamic mechanisms of CRISPR interference by Escherichia coli CRISPR-Cas3”.
